In paper PMC11341838 (Nature Communications, 2024):

Target: T1, Pf3D7 recombinant AMA1, full ectodomain (domain I, II and III) (P. falciparum (strain 3D7))
T1 chain: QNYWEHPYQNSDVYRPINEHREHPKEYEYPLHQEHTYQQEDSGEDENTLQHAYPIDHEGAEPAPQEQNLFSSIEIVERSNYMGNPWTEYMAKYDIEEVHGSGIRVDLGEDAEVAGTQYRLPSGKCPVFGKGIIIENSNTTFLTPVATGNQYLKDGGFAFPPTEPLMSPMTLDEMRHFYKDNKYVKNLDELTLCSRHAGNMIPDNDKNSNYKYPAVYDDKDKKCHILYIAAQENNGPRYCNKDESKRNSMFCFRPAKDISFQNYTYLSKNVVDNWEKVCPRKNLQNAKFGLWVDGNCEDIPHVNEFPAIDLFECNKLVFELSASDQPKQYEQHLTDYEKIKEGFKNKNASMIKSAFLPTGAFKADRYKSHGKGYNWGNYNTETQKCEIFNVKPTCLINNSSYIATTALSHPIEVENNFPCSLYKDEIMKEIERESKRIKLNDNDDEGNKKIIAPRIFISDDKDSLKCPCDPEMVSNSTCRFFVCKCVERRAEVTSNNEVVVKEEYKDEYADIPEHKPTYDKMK
Experiment: ELISA

- binding result: binds
B1: mAb 1F9 (antibody, V domains shown)
VH: EVQLQQSGAELLKPGASVKLSCIVSGFKIKDTSMHWVKQRPEQGLEWIGRIDPANDNSEYDPKFQGKATITADTSSNTAYLQLSSLTSEDTAVYYCTLSHFWGQGTTLTVSS
VL: SIVMTQTPKFLPVSAGDRVTIICKASQSVSNDVVWYQQKPGQSPKLLIYYASIRYTGVPDRFTGSGYGTDFTFTISTVQVEDLAVYFCQQGFSSPRTFGGGTKLEIN
